Data taken from patent US20260132197A1.
pEC50: −log10 of the molar value.

How the values were obtained:
[1] = target: human CD47 on cells (SHP-77 tumor cells, human red blood cells, CCRF-CEM cells, human CD47 CHO-K1 stable cell line) (human) (UniProt Q08722); assay: flow cytometry on human RBCs
[2] = target: cynomolgus CD47 on CHO-K1 stable cell line (cynomolgus); assay: flow cytometry on cynomolgus CD47 CHO-K1 cells; plateau not reached, not accurate
[3] = target: human CD47 on cells (SHP-77 tumor cells, human red blood cells, CCRF-CEM cells, human CD47 CHO-K1 stable cell line) (human) (UniProt Q08722); assay: flow cytometry on SHP-77 cells
[4] = target: human CD47 on cells (SHP-77 tumor cells, human red blood cells, CCRF-CEM cells, human CD47 CHO-K1 stable cell line) (human) (UniProt Q08722); assay: cell-based or functional assay
[5] = target: human CD47 on cells (SHP-77 tumor cells, human red blood cells, CCRF-CEM cells, human CD47 CHO-K1 stable cell line) (human) (UniProt Q08722); assay: flow cytometry on human CD47 CHO-K1 cells; plateau not reached, not accurate

pEC50 [1]: 8.01
Fitted maximal MFI [1]: 644 MFI
pEC50 [2]: 8.03
pEC50 [3]: 8.31
Fitted maximal MFI [3]: 10500 MFI
CCRF-CEM phagocytosis EC50 [4]: 0.4 nM
CCRF-CEM phagocytosis, Phagocytosis (%) [4]: 36.6%
pEC50 [5]: 7.98
Substance: TTI-622 fusion protein (Fc fusion)
